Source: patent US20210309732A1 (ELIXIRON IMMUNOTHERAPEUTICS HONG KONG, published 2021)

B1: 1D2 SDR mutant HD31A (antibody, IgG1, V domains shown)
VH: QVQLVQSGAEVKKPGASVKVSCEASGYTFTAKYLHWVRQAPGQGLEWMAWINPKSGGTFYAQNFKGRVTVTRDTSINTAYLELTSLRLDDTSTYYCARGRDYYDQGAADLWGQGTMVTVSS
VL: DIQLTQSPSSLSASVGDRVTITCRASQGINSVLAWYQQKPGKAPKLLLYAASKLESGVPSRFSGSGSGTDYTLTISSLQPEDFGTYYCQQYYSPVRTFGQGTKVEIKR
notes: also called X1 A
B2: 1D2 SDR mutant HK32A (antibody, IgG1, V domains shown)
VH: QVQLVQSGAEVKKPGASVKVSCEASGYTFTDAYLHWVRQAPGQGLEWMAWINPKSGGTFYAQNFKGRVTVTRDTSINTAYLELTSLRLDDTSTYYCARGRDYYDQGAADLWGQGTMVTVSS
VL: DIQLTQSPSSLSASVGDRVTITCRASQGINSVLAWYQQKPGKAPKLLLYAASKLESGVPSRFSGSGSGTDYTLTISSLQPEDFGTYYCQQYYSPVRTFGQGTKVEIKR
notes: also called X2 A
B3: 1D2 SDR mutant HD31W (antibody, IgG1, V domains shown)
VH: QVQLVQSGAEVKKPGASVKVSCEASGYTFTWKYLHWVRQAPGQGLEWMAWINPKSGGTFYAQNFKGRVTVTRDTSINTAYLELTSLRLDDTSTYYCARGRDYYDQGAADLWGQGTMVTVSS
VL: DIQLTQSPSSLSASVGDRVTITCRASQGINSVLAWYQQKPGKAPKLLLYAASKLESGVPSRFSGSGSGTDYTLTISSLQPEDFGTYYCQQYYSPVRTFGQGTKVEIKR
notes: also called X1 W
B4: 1D2 SDR mutant HD31S (antibody, IgG1, V domains shown)
VH: QVQLVQSGAEVKKPGASVKVSCEASGYTFTSKYLHWVRQAPGQGLEWMAWINPKSGGTFYAQNFKGRVTVTRDTSINTAYLELTSLRLDDTSTYYCARGRDYYDQGAADLWGQGTMVTVSS
VL: DIQLTQSPSSLSASVGDRVTITCRASQGINSVLAWYQQKPGKAPKLLLYAASKLESGVPSRFSGSGSGTDYTLTISSLQPEDFGTYYCQQYYSPVRTFGQGTKVEIKR
notes: also called X1 S
B5: 1D2 SDR mutant HD31T (antibody, IgG1, V domains shown)
VH: QVQLVQSGAEVKKPGASVKVSCEASGYTFTTKYLHWVRQAPGQGLEWMAWINPKSGGTFYAQNFKGRVTVTRDTSINTAYLELTSLRLDDTSTYYCARGRDYYDQGAADLWGQGTMVTVSS
VL: DIQLTQSPSSLSASVGDRVTITCRASQGINSVLAWYQQKPGKAPKLLLYAASKLESGVPSRFSGSGSGTDYTLTISSLQPEDFGTYYCQQYYSPVRTFGQGTKVEIKR
notes: also called X1 T
B6: 1D2 SDR mutant HK32F (antibody, IgG1, V domains shown)
VH: QVQLVQSGAEVKKPGASVKVSCEASGYTFTDFYLHWVRQAPGQGLEWMAWINPKSGGTFYAQNFKGRVTVTRDTSINTAYLELTSLRLDDTSTYYCARGRDYYDQGAADLWGQGTMVTVSS
VL: DIQLTQSPSSLSASVGDRVTITCRASQGINSVLAWYQQKPGKAPKLLLYAASKLESGVPSRFSGSGSGTDYTLTISSLQPEDFGTYYCQQYYSPVRTFGQGTKVEIKR
notes: also called X2 F
B7: 1D2 SDR mutant HD31N (antibody, IgG1, V domains shown)
VH: QVQLVQSGAEVKKPGASVKVSCEASGYTFTNKYLHWVRQAPGQGLEWMAWINPKSGGTFYAQNFKGRVTVTRDTSINTAYLELTSLRLDDTSTYYCARGRDYYDQGAADLWGQGTMVTVSS
VL: DIQLTQSPSSLSASVGDRVTITCRASQGINSVLAWYQQKPGKAPKLLLYAASKLESGVPSRFSGSGSGTDYTLTISSLQPEDFGTYYCQQYYSPVRTFGQGTKVEIKR
notes: also called X1 N
B8: 1D2 SDR mutant HD31R (antibody, IgG1, V domains shown)
VH: QVQLVQSGAEVKKPGASVKVSCEASGYTFTRKYLHWVRQAPGQGLEWMAWINPKSGGTFYAQNFKGRVTVTRDTSINTAYLELTSLRLDDTSTYYCARGRDYYDQGAADLWGQGTMVTVSS
VL: DIQLTQSPSSLSASVGDRVTITCRASQGINSVLAWYQQKPGKAPKLLLYAASKLESGVPSRFSGSGSGTDYTLTISSLQPEDFGTYYCQQYYSPVRTFGQGTKVEIKR
notes: also called X1 R
B9: 1D2 SDR mutant HD31V (antibody, IgG1, V domains shown)
VH: QVQLVQSGAEVKKPGASVKVSCEASGYTFTVKYLHWVRQAPGQGLEWMAWINPKSGGTFYAQNFKGRVTVTRDTSINTAYLELTSLRLDDTSTYYCARGRDYYDQGAADLWGQGTMVTVSS
VL: DIQLTQSPSSLSASVGDRVTITCRASQGINSVLAWYQQKPGKAPKLLLYAASKLESGVPSRFSGSGSGTDYTLTISSLQPEDFGTYYCQQYYSPVRTFGQGTKVEIKR
notes: also called X1 V
B10: 1D2 SDR mutant HD31P (antibody, IgG1, V domains shown)
VH: QVQLVQSGAEVKKPGASVKVSCEASGYTFTPKYLHWVRQAPGQGLEWMAWINPKSGGTFYAQNFKGRVTVTRDTSINTAYLELTSLRLDDTSTYYCARGRDYYDQGAADLWGQGTMVTVSS
VL: DIQLTQSPSSLSASVGDRVTITCRASQGINSVLAWYQQKPGKAPKLLLYAASKLESGVPSRFSGSGSGTDYTLTISSLQPEDFGTYYCQQYYSPVRTFGQGTKVEIKR
notes: also called X1 P
B11: 1D2 SDR mutant HD31L (antibody, IgG1, V domains shown)
VH: QVQLVQSGAEVKKPGASVKVSCEASGYTFTLKYLHWVRQAPGQGLEWMAWINPKSGGTFYAQNFKGRVTVTRDTSINTAYLELTSLRLDDTSTYYCARGRDYYDQGAADLWGQGTMVTVSS
VL: DIQLTQSPSSLSASVGDRVTITCRASQGINSVLAWYQQKPGKAPKLLLYAASKLESGVPSRFSGSGSGTDYTLTISSLQPEDFGTYYCQQYYSPVRTFGQGTKVEIKR
notes: also called X1 L
B12: 1D2 SDR mutant HD31E (antibody, IgG1, V domains shown)
VH: QVQLVQSGAEVKKPGASVKVSCEASGYTFTEKYLHWVRQAPGQGLEWMAWINPKSGGTFYAQNFKGRVTVTRDTSINTAYLELTSLRLDDTSTYYCARGRDYYDQGAADLWGQGTMVTVSS
VL: DIQLTQSPSSLSASVGDRVTITCRASQGINSVLAWYQQKPGKAPKLLLYAASKLESGVPSRFSGSGSGTDYTLTISSLQPEDFGTYYCQQYYSPVRTFGQGTKVEIKR
notes: also called X1 E
B13: 1D2 SDR mutant HK32E (antibody, IgG1, V domains shown)
VH: QVQLVQSGAEVKKPGASVKVSCEASGYTFTDEYLHWVRQAPGQGLEWMAWINPKSGGTFYAQNFKGRVTVTRDTSINTAYLELTSLRLDDTSTYYCARGRDYYDQGAADLWGQGTMVTVSS
VL: DIQLTQSPSSLSASVGDRVTITCRASQGINSVLAWYQQKPGKAPKLLLYAASKLESGVPSRFSGSGSGTDYTLTISSLQPEDFGTYYCQQYYSPVRTFGQGTKVEIKR
notes: also called X2 E
B14: 1D2 SDR mutant HD31C (antibody, IgG1, V domains shown)
VH: QVQLVQSGAEVKKPGASVKVSCEASGYTFTCKYLHWVRQAPGQGLEWMAWINPKSGGTFYAQNFKGRVTVTRDTSINTAYLELTSLRLDDTSTYYCARGRDYYDQGAADLWGQGTMVTVSS
VL: DIQLTQSPSSLSASVGDRVTITCRASQGINSVLAWYQQKPGKAPKLLLYAASKLESGVPSRFSGSGSGTDYTLTISSLQPEDFGTYYCQQYYSPVRTFGQGTKVEIKR
notes: also called X1 C
B15: 1D2 SDR mutant HK32C (antibody, IgG1, V domains shown)
VH: QVQLVQSGAEVKKPGASVKVSCEASGYTFTDCYLHWVRQAPGQGLEWMAWINPKSGGTFYAQNFKGRVTVTRDTSINTAYLELTSLRLDDTSTYYCARGRDYYDQGAADLWGQGTMVTVSS
VL: DIQLTQSPSSLSASVGDRVTITCRASQGINSVLAWYQQKPGKAPKLLLYAASKLESGVPSRFSGSGSGTDYTLTISSLQPEDFGTYYCQQYYSPVRTFGQGTKVEIKR
notes: also called X2 C
B16: 1D2 SDR mutant HK32D (antibody, IgG1, V domains shown)
VH: QVQLVQSGAEVKKPGASVKVSCEASGYTFTDDYLHWVRQAPGQGLEWMAWINPKSGGTFYAQNFKGRVTVTRDTSINTAYLELTSLRLDDTSTYYCARGRDYYDQGAADLWGQGTMVTVSS
VL: DIQLTQSPSSLSASVGDRVTITCRASQGINSVLAWYQQKPGKAPKLLLYAASKLESGVPSRFSGSGSGTDYTLTISSLQPEDFGTYYCQQYYSPVRTFGQGTKVEIKR
notes: also called X2 D
B17: 1D2 SDR mutant HD31Q (antibody, IgG1, V domains shown)
VH: QVQLVQSGAEVKKPGASVKVSCEASGYTFTQKYLHWVRQAPGQGLEWMAWINPKSGGTFYAQNFKGRVTVTRDTSINTAYLELTSLRLDDTSTYYCARGRDYYDQGAADLWGQGTMVTVSS
VL: DIQLTQSPSSLSASVGDRVTITCRASQGINSVLAWYQQKPGKAPKLLLYAASKLESGVPSRFSGSGSGTDYTLTISSLQPEDFGTYYCQQYYSPVRTFGQGTKVEIKR
notes: also called X1 Q
B18: 1D2 SDR mutant HD31G (antibody, IgG1, V domains shown)
VH: QVQLVQSGAEVKKPGASVKVSCEASGYTFTGKYLHWVRQAPGQGLEWMAWINPKSGGTFYAQNFKGRVTVTRDTSINTAYLELTSLRLDDTSTYYCARGRDYYDQGAADLWGQGTMVTVSS
VL: DIQLTQSPSSLSASVGDRVTITCRASQGINSVLAWYQQKPGKAPKLLLYAASKLESGVPSRFSGSGSGTDYTLTISSLQPEDFGTYYCQQYYSPVRTFGQGTKVEIKR
notes: also called X1 G

These binders were tested against T1, recombinant human GM-CSF (human, UniProt P04141 18-144) (assay: ELISA on coated rhGM-CSF, UBA relative to 1D2).
T1 construct: also called rhGM-CSF; CSF2
T1 sequence (P04141 18-144 limits assumed): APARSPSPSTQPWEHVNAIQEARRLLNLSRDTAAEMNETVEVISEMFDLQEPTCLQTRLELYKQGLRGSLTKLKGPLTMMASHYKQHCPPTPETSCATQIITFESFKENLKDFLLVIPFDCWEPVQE
Source text: Some of the residues in the CDRs are essential for epitope binding affinity and/or specificity. A number of computational methods were developed to detect these functional residues, generally known as ‘specificity-determining resides’ (SDRs). […] Based on the analysis, 7 amino acid residues in VH and 3 amino acid residues in VL were selected as the SDRs. The residues are labeled X₁ to X₁₀ for the ease of reference. The SDRs on VH are: Heavy chain D31 (HD31) (X₁), HK32 (X₂), HK54(X₃), HR100 (X₄), HY102 (X₅), HY103 (X₆) and HQ105 (X₇). The SDRs on VL are Light chain V32 (LV32) (X₈), LP94 (X₉) and LV95 (X₁₀). The SDRs were subsequently mutated by site-directed mutagenesis to other amino acids to generate mutant VH or VL clones. HEK293 cells were co-transfected with a vector encoding a mutant VH paired with a vector encoding a wild type VL or a vector encoding a wild type VH paired with a vector encoding a mutant VL. The antibody clones were harvested from the culture medium. The binding affinity of each antibody clone to human GM-CSF was tested by ELISA. The ELISA was done according to the following procedures. ELISA plate was coated with 50 μl of rhGM-CSF at 1 μg/mL. The plate was washed with 200 μl PBST for three times, followed by blocking with 1% BSA for 1 hour at room temperature. The antibody clones to be tested were diluted at 1:12000. 100 μl of the diluted antibodies were added to the cell at 100 μl/well. The plate was incubated at room temperature for 1 hour. The plate was then washed and incubated with 1:5000 diluted goat-anti-human secondary antibody conjugated with HRP at room temperature for one hour. The ELISA assay was developed with 100 μl developing buffer containing H₂O₂-Amplx Red per well in the dark for 5 min and the fluorescence intensity was read at Ex.530/Em.590 nm, with cutoff at 570 nm. The Unit Binding Activity (UBA) of each sample was calculated as the fluorescence signal/antibody clone dilution factor.
With B1 the “binding affinity % of 1D2” value was 66%.
With B2 the “binding affinity % of 1D2” value was 61%.
For B3, the “binding affinity % of 1D2” value was 72%.
In the case of B4, the “binding affinity % of 1D2” value is reported as 47%.
In the case of B5, the “binding affinity % of 1D2” value is reported as 44%.
B6 was tested, and the “binding affinity % of 1D2” value was 63%.
In the case of B7, the “binding affinity % of 1D2” value is reported as 74%.
For B8, the “binding affinity % of 1D2” value was 73%.
In the case of B9, the “binding affinity % of 1D2” value is reported as 71%.
B10 was tested, and the “binding affinity % of 1D2” value was 69%.
B11 was tested, and the “binding affinity % of 1D2” value was 57%.
For B12, the “binding affinity % of 1D2” value was 63%.
For B13, the “binding affinity % of 1D2” value was 94%.
For B14, the “binding affinity % of 1D2” value was 79%.
With B15 the “binding affinity % of 1D2” value was 86%.
With B16 the “binding affinity % of 1D2” value was 90%.
B17 was tested, and the “binding affinity % of 1D2” value was 74%.
In the case of B18, the “binding affinity % of 1D2” value is reported as 58%.
